These are literature values, as cited in patent US20250099434A1, “METHODS OF TREATING AMYLOID RELATED BRAIN DISORDERS USING NOVEL COMPOUNDS AND ANTIBODIES” (T3D Therapeutics, Inc., priority 2022, published 2025).

The conditions of series [1]: human, in vivo; cited from earlier work.
For series [2] the following is noted: EXPEDITION-3; cited from earlier work.
The test system of another series is Aβ fibrils. The settings on record: cited from earlier work.
The subject of the next series is brain amyloid. The settings on record: cited from earlier work.

Turning to “Crenezumab: humanized antibody with an IgG4 backbone recognizing multiple forms of aggregated Aβ”, in series [1], the ARIA incidence entry was “low”.
Consider “solanezumab: humanized monoclonal IgG1 antibody directed against the mid-domain of the Aβ peptide”, for which the “incidence of vasogenic edema (ARIA-E), patients treated” value in series [2] is “approximately 0.1%”.

B1: Gantenerumab: fully human IgG1 antibody binding a conformational epitope on Aβ fibrils (antibody, chains of the INN, looked up, V domains shown)
VH: QVELVESGGGLVQPGGSLRLSCAASGFTFSSYAMSWVRQAPGKGLEWVSAINASGTRTYYADSVKGRFTISRDNSKNTLYLQMNSLRAEDTAVYYCARGKGNTHKPYGYVRYFDVWGQGTLVTVSS
VL: DIVLTQSPATLSLSPGERATLSCRASQSVSSSYLAWYQQKPGQAPRLLIYGASSRATGVPARFSGSGSGTDFTLTISSLEPEDFATYYCLQIYNMPITFGQGTKVEIK
As for B1, the “affinity to a conformational epitope on Aβ fibrils” value in the series with Aβ fibrils was “sub-nanomolar”. For the same molecule, the “lowering of brain amyloid, average, florbetapir PET” value with brain amyloid (dosed as high as 1200 mg subcutaneously) is on record as 59 centiloid. Moreover, in the series on brain amyloid (extension studies), the “participants who developed ARIA-E” value is “one-third”. Also, the “patients with ARIA” value with brain amyloid (highest dose) is “one third”.
